# Assay results reported in patent publication US20210340276A1 (published 2021).
# Where a chain is given by its changes, count along the chain named.
# B1: P10-1 Fab (Fab, V domains shown)
# VH: QVQLVQSGAEVKKPGASVKVSCKASGYTFTNYGLSWVRQAPGQGLEWMGENHPGSGIIYHNEKFRGRVTLTADRSTSTAYMELSSLRSEDTAVYYCARSSGTRGFAYWGQGTLVTVSS
# VL: DVVMTQTPLSLSVTPGQPASISCRSSQSIVHSNGNTYLEWYLQKPGQSPQLLIYRVSNRFSGVPDRFSGSGSGTDFTLKISRVEAEDVGVYYCFQGSHGPWTFGQGTKLEIKR
# B2: P10-2 Fab (Fab, V domains shown)
# VH: B1 VH with A106D
# VL: B1 VL
# modifications: heavy chain N-terminal glutamine modified into pyroglutamic acid in a great majority of purified antibodies (Example 2)
# Target: human cancer-specific MUC1 (on breast cancer cell line T-47D cells) (human, UniProt P15941 24-1255, cancer-specific incomplete O-glycosylation (T, Tn, 2,3ST) of the tandem repeat, as described in the background)
# Experiment: Cell ELISA
row,Binder,Kd
1,B1,0.35 nM
2,B2,0.29 nM
